PMC8213806 (Nature Communications, 2021)

Key:
Assay in all cases: pull-down
Conditions in all cases: both partners purified
[1] = molecular target: TcdB1 holotoxin L563G/I566G (Clostridioides difficile (VPI10463 …, UniProt P18177 1-2366, L563G | I566G))
TcdB1 holotoxin N1758A = TcdB1 holotoxin N1758A (Clostridioides difficile (VPI10463 …, UniProt P18177 1-2366, N1758A))
TcdB1 holotoxin Y621A = TcdB1 holotoxin Y621A (Clostridioides difficile (VPI10463 …, UniProt P18177 1-2366, Y621A))
[2] = molecular target: TcdB1 holotoxin F1823G/I1825G/M1831G (Clostridioides difficile (VPI10463 …, UniProt P18177 1-2366, F1823G | I1825G | M1831G))
TcdB1 holotoxin D1812G = TcdB1 holotoxin D1812G (Clostridioides difficile (VPI10463 …, UniProt P18177 1-2366, D1812G))
TcdB1 holotoxin N1850A = TcdB1 holotoxin N1850A (Clostridioides difficile (VPI10463 …, UniProt P18177 1-2366, N1850A))
TcdB1 holotoxin Y603G = TcdB1 holotoxin Y603G (Clostridioides difficile (VPI10463 …, UniProt P18177 1-2366, Y603G))
[3] = molecular target: TcdB1 holotoxin V1816G/L1818G (Clostridioides difficile (VPI10463 …, UniProt P18177 1-2366, V1816G | L1818G))
TcdB1 holotoxin S567E = TcdB1 holotoxin S567E (Clostridioides difficile (VPI10463 …, UniProt P18177 1-2366, S567E))

Measured: binding result

B1: Repeat1-Fc (CSPG4 Repeat1, residues 410–551, fused to the N-terminus of human IgG1 Fc) (Fc fusion)
chain: ELPEPCVPEPGLPPVFANFTQLLTISPLVVAEGGTAWLEWRHVQPTLDLMEAELRKSQVLFSVTRGARHGELELDIPGAQARKMFTLLDVVNRKARFIHDGSEDTSDQLVLEVSVTARVPMPSCLRRGQTYLLPIQVNPVND
notes: also called CSPG4 decoy; source: FreeStyle HEK 293 cells, secreted, purified (Ni-NTA); not shown: Fc (human IgG1), C-terminal, kept
binds: all assays above
